Kd, koff and kon data for two molecules are collected here from CN111253486A (ZAI LAB SHANGHAI CO LTD, dated 2020).

The assay concerns the target T1, human PD-1-his (recombinant human PD-1 extracellular domain with C-terminal polyhistidine tag) (human, UniProt Q15116 25-170).
T1 construct: extracellular domain; also called 人PD-1-his; hPD-1蛋白
The assay can be described thus: SPR (Biacore 8K), antibody captured, antigen injected. In general terms: In SPR one partner is held on a chip, and binding of the other changes the refractive index at the surface.

T1 sequence (Q15116 25-170): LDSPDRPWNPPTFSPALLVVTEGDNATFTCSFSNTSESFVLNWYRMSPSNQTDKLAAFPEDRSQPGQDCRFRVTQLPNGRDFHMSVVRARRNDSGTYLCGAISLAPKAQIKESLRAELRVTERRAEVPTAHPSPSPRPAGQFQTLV

B1: murine anti-PD-1 antibody 56B3C11 (antibody, V domains shown)
VH: EVMLVESGGGLVQPGGSLKLSCAASGFTFNSYTMSWVRQTPEKRLEWVAYISFGGGDTYYPDTVKGRFTISRDNAKNTLYLQMNSLKSEDTAMYYCARQGNYEGAPFAYWGQGTLVTVSA
VL: DIQMTQTTSSLSASLGDRVTISCRASQDISNFLNWYQLKPDGTIKLLIYYTSRLHSGVPSRFSGSGSGTDYSLTITDLEQEDIATYLCQQGDMIPWTFGGGTKLEIK
As usually defined, the Kd is the free concentration of one partner at which half of the binding sites on the other are occupied at equilibrium, for simple one-to-one binding. The koff is a measure of how fast the partners let go of each other. A word on the kon: it is a measure of how fast the partners come together. For the molecule B1, the Kd is 2.43 nM, the dissociation rate constant (koff) came to 0.000295 s⁻¹ and the kon was 122000 M⁻¹ s⁻¹.

B2: murine anti-PD-1 antibody 31G1E10 (antibody, V domains shown)
VH: EVKLVESGGGLVKPGGSLKLSCAASGFTFSSYGMSWVRQTPEKRLEWVATISGGGRDTYYPDSVKGRFTISRDNAKNNLYLQMNNLRSEDTALYYCARQRDSAWFAHWGQGTRVTVSA
VL: not shown
For B2, the Kd amounted to 1.16 nM, the koff amounted to 0.000198 s⁻¹ and the kon amounted to 171000 M⁻¹ s⁻¹.
